Here are results for 3 molecules from patent US20160145321A1.

The target of experiment [1] is T1, Sym-1789 (RSV-G type B central region peptide 145-184) (Respiratory syncytial virus type B). Description: BLI (Octet Red384), biotinylated peptide on streptavidin sensor tips.
The target in experiment [2] is T2, Sym-1705 (RSV-G type A central region peptide 145-201) (Respiratory syncytial virus type A). Described as above.
In experiment [3] the target is T3, Sym-1706 (RSV G central conserved domain (CCD) peptide, type A 145-184) (Respiratory syncytial virus type A). Described as above.
In experiment [4] the target is T4, Sym-1788 (RSV-G type B central region peptide 145-201) (Respiratory syncytial virus type B). Described as above.
The target in experiment [5] is T1, Sym-1789 (RSV-G type B central region …). In words: ELISA, antibody titrated on biotinylated peptide on avidin plates (FIG. 3). (In general: In an ELISA, binding on a coated surface is turned into a signal by an enzyme label.)
Experiment [6] addresses T2, Sym-1705 (RSV-G type A central region …). Described as above.
In experiment [7] the target is T3, Sym-1706 (RSV G central conserved …). The experiment is described as above.
Experiment [8] deals with T4, Sym-1788 (RSV-G type B central region …). The experiment is described as above.
Experiment [9] has as its target G protein of RSV A/Long (virus, ATCC Cat. No. VR-26) (Respiratory syncytial virus A/Long) (UniProt P20895). In words: cell-based or functional assay.

B1: CB010.7 (antibody, V domains shown)
VH: QVQLVESGGGVVQPGRSLRLSCAASGFTFNTHGMHWVRQAPGKGLEWVAVMSYDGTKKYHADSVKGRFTISRDNSKNTLYLQMNSLRVEDTAIYYCAKVGELRSFDWLLADGTAYYYYGMDVWGQGTTVTVSS
VL: not shown
Turning to B1, the binding response (Octet) [RU] in experiment [1] came to 2.96 RU; in experiment [2], 1.25 RU; in [3], 1.74 RU; in experiment [4], 1.94 RU. Moreover, the IC50 in [5], in experiment [6], in experiment [7] and in [8] was 0.02 µg/mL each time.

B2: CB003.1 (antibody, V domains shown)
VH: QVQLVQSGPELRKPGASVTVSCKASGYTFTTYYIHWVRQAPGGGLDWMGMINTGSGVTSYAQKFQGRVAMTRDTSTSTVFMELSSLRFEDTALYYCARMYSGSWYPFDYWGQGALVTVSS
VL: EIVLTQSPGTLSLSPGERATLSCRASQNINGNYLAWYQQKPGLAPRLLIYEASSRATGIPDRFSGSGSGTDFTLTISSLEPEDFGVYYCQQYGTSPFFTFGPGTKVDIK
Take B2: the binding response (Octet) [RU] in experiment [1] was determined as 3.2 RU; in experiment [2], 3.48 RU; in experiment [3], 3.36 RU; in [4], 3.28 RU. Further, the IC50 in [5], in [6], in experiment [7] and in experiment [8] was 0.02 µg/mL each time.

B3: CR9505 (an antibody based on 131-2G, comprising the heavy and light chain variable region of 131-2G) (antibody, from another filing, V domains shown)
VH: EVQLQQSGPELVKPGTSVKISCKASGYSFTGFTMNWVKQSHGKNLEWFGLINPFNGNTGYNQKFKGKATLTVDKSSSTAFMELLSLTSEDSAVYYCARSGKSYDYEAWFTYWGQGTLVTVSA
VL: DIVMTQTTLSLPVSLGNQASISCRSSQTIVHTNGNTYLEWYLQKPGQSPKLLIYKVSNRFSGVPDRFSGSGSGTDFILNISRVEAEDLGVYYCFQGSHVPFTFGSGTKLEIKR
B3: the Neutralization IC50 (plaque reduction assay, Vero cells) in [9] stood at 0.018 µg/mL.
